Assay [1] addresses T1, PRAME peptide on HLA-A*02:01 (human).
T1 peptide: SLLQHLIGL
Put plainly: killing.

The target of assay [2] is T2, PRAME peptide on HLA-A*02:01 (human).
T2 peptide: VLDGLDVLL
Put plainly: multimer staining.

B1: TCR T4.8-1-29 (TCR, V domains shown)
Valpha: EDQVTQSPEALRLQEGESSSLNCSYTVSGLRGLFWYRQDPGKGPEFLFTLYSAGEEKEKERLKATLTKKESFLHITAPKPEDSATYLCAVHSTAQAGTALIFGKGTTLSVSS
Vbeta: DSGVTQTPKHLITATGQRVTLRCSPRSGDLSVYWYQQSLDQGLQFLIQYYNGEERAKGNILERFSAQQFPDLHSELNLSSLELGDSALYFCASSTHRGQTNYGYTFGSGTRLTVV
B1: the binding result in assay [1] is recorded as “no recognition”; in assay [2], “recognises”.
